Assay: yeast display, Sf9 membrane polyspecificity reagent, FACS + sequencing; frameworks hold sequencing errors
In short: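 A nanobody's polyreactivity label depends on the gate it was sorted from. Yeast display cells were stained with 10% biotinylated, detergent-solubilized Sf9 membrane reagent for 1 hour at 4 °C, enriched on streptavidin microbeads and sorted by FACS. The low and high (top ~1%) gates were set on anti-HA fluorescence for expression and streptavidin fluorescence for reagent binding.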

Sequence | polyreactivity (PSR sort gate)
QVQLVESGGGLVHAGGSLRLSCAASGRIFGPYAMGWYRQAPGKERELVAAISRSGSTTYYAVSVKGRFTISRDNAKNTVYLQMNSLKPDDTAVYYCNGRRYRVVQSKPCDYWGQGTQVTVSS | high polyreactivity
QVQLVESGGGLVQAGGSLRLSCAASGRIFGDNTMGWYRQAPGKERELVAAISFTGGSTYYADSVKGRFTISRDNAKNTVYLQMNSLKPEDTAVYYCNADWVSTWGYDYWGQGTQVTVSS | low polyreactivity
QVQLVESGGGLVQAGGSLRLSCAASGSTFGYNAMGWYRQATGKERELVARITSSGGSTYYADSVKGRFTISRDNAKNTVYLQMNILKPEDTAVYYCAAGYLSGNYARYGYWGQGTQVTVSS | high polyreactivity
QVQLVESGGGLVQAGGSLRLSCAAYGIIFAYNAMGWYRQAPGKERELVATITDSGGSTSYADSEKGRFTISRDNAKNTVYLQMNSLKPEDTAVYYCAVLPVYWYWRNYVYLSGYDYWGQGTQVTVSS | low polyreactivity
QVQLVESGGGLVQAGGSLRLSCAASGRTFSIYAKGWYRQAPGKERELVAAISNGGRTKYADSVKGRFTISRDNAKNTVYLQMNSLKPEDTAVYYCAASSYTHKRYPSPYDYWGQGTQVTVSS | high polyreactivity
QVQLEESGGGLVQAGGSLRLSCAAYGSIFYKNAMGWYRQAPGKERELVAAITYSGGSTYYADSVKGRFTISRDNAKKTVYLQMNSLKPEDTAVYYCAADIGVYGERREEEYDYWGQGTQVTVSS | low polyreactivity
QVQLVESGGGLVQAGGSLRLSCAASGSTFVQYAMGWYRQAPGKERELVAAITSGGRTNYADSVNGRFTISRDNAKNTVYLQMNSLKPEDTAVYYCAARYGSNSPRRYEYYYWGQGTQVTVSS | low polyreactivity
QVQLVESGGGLVQAGGSLRLSCAASGSTFRTYAMGWYRQAPGKERELVAAISYNGGSTYYADSVTGRFTISRDNAKNTVYLQMNILKPEDTEVYYFAKDQTGYWYNRYGYWGQGTQVTVSS | low polyreactivity
QVQLVESGGGLVQAGGSLRLSCAASGFIFYAYAMGWYRQAPGKERELVAAITSSGSRTYYADSVKGRFTISRDNAKNTVYLQMNSLKPEDTAVYYCNARSGGVRYSNIGTEKYDYWGQGTQVTVSS | low polyreactivity
QVQLVESGGGLVQAGGSLRLSCAASGSIFDIYAMGWYRPAPGKERELVAAISLSAGSTYYADSVKGRFTISRDNAKNTVYLQMNSLKPEDTAVYYCNADGWYGYWGQGTQVTVSS | low polyreactivity
QVQLVESGGGLVQAGGSLRLSCAASGRTFAPYAMVWYRQAPGKERELVAAITYSGGSTYYADSVKGRFTISRDNAKNTVYLQMNSLIPADTAVYYCAADSDYDPYDYWGQGTQVTVSS | low polyreactivity
QVQLVESGGGLVQAGGSLRLSCAASGLIFWYYTMGWYRPAPGKERELVAAITIGGSTYYADSVKGRFTISRDNAKNTVYLQMNSLKPEDTAVYYCNTRRGRSQGGRYEYDYWGQGTQVTVSS | low polyreactivity
QVQLVESGGGIVHAGGSLRLSCAASGFIFDTNAMGWYRQAPGKEREMVAAITNDDSTNYADSVKGRFTISRDNAKTTVYLQMNSLKPEDTSVYYCAAYYIAQVVWPTTFHQQEYDYWGQGSQVTVSS | low polyreactivity
QVQLVESGGGLVQAGGSLRLRGAASGRTFPGYAMGWCRPAPGNERELVATICSADSTNYADSVMGRFTSSRDNAKNTVKLHMKSLKPEDTAVYFCAQRYGRNGAAAQYNVWYRYDYWGQGTQVTVSS | low polyreactivity
QVQLVESGRGLVQAGGSRRLSCAASGSIITWNAMARYRQAPGKERELFAAIDWDGGSTYYADSVKGRFTISRDNAKNTVYFQMNSLKPEDTAVYYCAATYGWYTGRYPSGHYYYWGQGTQVTVSS | low polyreactivity
QVQLVESGGGLVQARGSLRLSCAASGRIFDRYDMGCYRQAPGKEREFVASITWSDGSTYYADSVKGRFTISRDYAKNTVYLQMNSLKPEDTAVYYCNADYVYYYIPVVYEYDYWGQGTQVTVSS | high polyreactivity
QVQLVESGGGLVQAGGSLRLSCAASGRIFNYYAMGWYRQAPGKARELVAAISGSGGRTYYADSVKGRFTISRDNAKNTVYLQMNSLKPEDTAVYYCAADGVDGYDYWGQGTQVTVSS | high polyreactivity
QVQLVESGGGLVQAGGSLRLSCAASGSTFAGNAMGWYRQAPGKERELVAAITSGTGTHYADSVKGRFTISRDNAKNSVYLQMNSLKPEDTAVYYCAAEVWTWAGIWGYEYWGQGTQVTVSS | low polyreactivity
QVQLVESGGGLVQAGGILRLSCAACGITVTSYAMGWYRQAPGKERELVAVITGTGGITYYADSVKGRFTISRDNAKNTVYLQMNSLKPEDTAVYYCAAELELREYDYWGQGNQVTVSS | high polyreactivity
QVQLVESGGGLVQAGGSLRLSCAASGRTFPAYAMGWYRQAPGKERELVAGISKRGGSTYYADSVKGRFTISRDNAKNTVYFQMNSLKPEDTAVYYCNAEGHLFRYDSWGQGTQVTVSS | high polyreactivity
QVQLVESGGGLVQAGGSLRLSCAASGRIFVPNAMGWYRPPPGKERELVAAINWGGGSTYYADSVKGRFTISRDNAKNTVYLQMNSLKPEDTAVYYCAADHPYTIGVLPNQQFDYWGQGTQVTVSS | low polyreactivity
QVQLVESGGGLVQAGGSLRLSCAASGSIFNPYAMGWYRQAPGKERELVAAISYTGGRTYYADSVKGRFTISRDNAKNTVYLQMNSLKPEDTAVYYCAAGHYVYWYRYQLGRYNYWGQGTQVTVSS | high polyreactivity

Sequence | polyreactivity (PSR sort gate)
QVQLVESGGGLVQAGGSLPLSCAASGLTFYRYAMGWYREAPGKERELVAAISFSGGSTYYADSVKGRFTISRDIAKYTVYIQMNCLKPEDTAVYYCAASYQGRRYQDRYDYWGQGNQVTVSS | high polyreactivity
QVQLVESGGGLVQAGGSLRLSCAASGITFGWYAMGLYRQAPGKERELVAAISTGSSTYYADSVKGRFTISRDNAKNTVYLQMNSLKPEDTAVYYCNAYPGPSGTLYVTPYDYWGQGTQVTVSS | high polyreactivity
QVQLVESGGALVQAGGSLRLTCAYSGSTSYNNAMGWYRHAPGKERELYASLYMSAGSTYYADSVKGRFKISRDNEKNTVYLQMNSLKPEDTAVYYCAAESVAILGLVDPKGYGYWGQGTQVTVSS | low polyreactivity
QVQLVESGGGLVQAGGSLRLSCAASGSIFAYYAMGWYRQAPGKERELVAAIDSRGGSTYYADSVKGRFTISRDNAKNTVYLQMNSLKPEDTAVYYCAARLRYPRRGQGDNYWGQGTQVTVSS | low polyreactivity
QVQLVESGGGLVQAGGSLRLSCASSGSTFPSNAMGWYRQAPGKERELVAAISRSGGSTYYADSVKGRFTISRDNAKNTVYLQMNSLKPEDTAVYYCAVQVRPNYGGTRIHRGGYDYWGQGTQVTVSS | low polyreactivity
QVQLVESGGGLDQAGGSLRLSCAASGRIFTYNTMGWYRQAPGKEREFVASITYSGSSTYYADSVKGRFTISRDNAKNTVYLEMNSLKPEVTAVYYCAHRYGYSDGDYWGQGTQVTVSS | low polyreactivity
QVQLVEAGGGLVQAGGSLRLSCAASGYTFGKNAMGWYRQAPGKERELVAAITYSGGSTYYADSVKGRFTISRDNAKNTVYLQMNSLKPEDTAVYYCAADNPSDVYDTWVYYWGQGTQVTVSS | high polyreactivity
QVQLVESGGGLVQAGGSLRLSCAASGRTFGGNSMGWYRQAPGKERELVAAISGSGGSTYYADSVKGRFTISRDNAKNTVYLQMNSLKPEDTAVYYCAKASRKGWRYDSWGQGTQVTVSS | high polyreactivity
QVQLVESGGGLVQAGGILRLSCAASGIIFGYNAMGWYRQAPGKERELVAAISYGGGRTYYADSVKGRFTISRDNAKNSVYLQMNSLKPEDTAVYYCAAQYFASRSYGYDYWGQGTQVTVSS | high polyreactivity
QVQLVESGGGLVQAGGSLRLSCAASGSIYWINTSMGWYIQAPGKERELVAAITWSSGGTYYADSVKGRFTISRDNAKKTVYLQMNSLKPEDTAVYYCAKVRFFWYRMGYWGQGTQVTVSS | high polyreactivity
QVQLVESGGGLVQAGGSLRLSCAASGSTFGYNAMGWYRQSPGKERELVAAISYSGGSTYYADSVKGRFTISRDNAKNTVYLLMNSLKPEDTAVYYCAKETNRVGRYHWGQGTQVNVSS | low polyreactivity
QVQLVESGGGLVQAGGSLRLSCAASGIIFYDYAMGWYRPAPGKERELVAAINYSGGSTYYADSVKGRFTISRDNAKNTVYLQMNSLKPEDTAVYYCAADNAVWEYDYWGQGTQVTVSS | low polyreactivity
QFQLVESGGGLVQAGGSLRLSCAASGRTLHGYTMGWYRQAPGKVREFVATISSIGGSTYYADSVKGRFTISRDNAKNTVYLQMNSLKPEDTAVYYCNRGRARVIFSGMDYWGQGTQVTVSS | low polyreactivity
QVQLVESGGGLVQAGGSLRLSCAASGLTFYYYAMGWYRQAPGKEREFVAAISYRGGRTYYADSVKGRFTISRDNAKNTVYLQMNSLKPEDTAVYYCAKLGKSRWWGVGPLEMDSWGQGTQVTVSS | high polyreactivity
QVQLVESGGGLVQAGGSLRLSRAASGSIFKYYAMGWYRQAPGKERELVAAITYSGGSTFYADSVKGRFTISRDNAKNTVYLQMNSLKPEDTAVYYCNKVYKSYYWGGYDWGQGTQVTVSS | high polyreactivity
QVQLVESGGGLVQAGGSLRLSCASSGLILAPNDMGWYRQAPGKERELVAAITFRGVRTYYADSVKGRFTISRDNAKNNVYLQLNSLKPEDTAVYYCAAAVSKHYPYNYWGQGTQVSVSS | high polyreactivity
QVQLVESGGGLVQAGGSLRLSCAASGIILRRYAMGWYRQAPGKERELVARISYRGGRTNYADSVKGRFTISRDNAKNTFYLEMNSLKPEDTAVYYCDAVDWYYHEGTAYNYWGQGTQVTVSS | high polyreactivity
QVQLVESAGGLVQAGGILRLSCAASGRIFTRNAMGWYRQAPGKERELVAAISSSSGSKYYADSVKGRFTISRDNAKNTVYLQMNSLKPEDTAVYYCAARSYYYSWGYDHWGQGTQVTVSS | high polyreactivity
QVQLVESGGGLVQAGGSLRLSCAASGRSLGWYAMGWYRKAPGKERELVAAISSGVRTNYADSVKGRFTISRDNAKNTVYLQMNSLKPEDTAVYYCAAATYNQDYSYDYWGQGTQVTVSS | low polyreactivity
KVQVVESGGCLVQAGGSLRLSCAASGFSFGGYAMGCYRQAPGKDRELVAAINYRGGSTNYADSVKGRFTISRDNAKNTVYFQMNSLKPEDTAVYYCAASYFYWRANRGPRYYWGQGTQVTVSS | high polyreactivity
QVQLVESGGGLVQAGGSLRLSCAASGRILDINTMGWYRHPPGKERELVAAITWSGVSTYYADSVKGRFTISRDNAKNTVYLQMNSLKPEDTAVYYCAARPYYTWRYLPTKSGDYWGQGTQVTVSS | low polyreactivity

From the nanobody polyreactivity screen of Harvey et al. (2022)
